Data published in the supplement of paper PMC10126150.
± gives the standard deviation of the averaged measurements.

What follows are sequences tested on ATP (assay: switch fluorescence ratio, 500 uM ATP over buffer (Cy3 cluster intensity, sum of 5 cycles each) (fold (ratio)); higher = stronger signal-on switching upon ATP binding; sequences stand for … in TCGTCGGCAGCGTCAGATGTGTATAAGAGACAGTTTTTTTTTTTTTTTTTTTTTTTTT…TC). Settings: aptamer strand: ATP DNA aptamer (quencher-CACCTGGGGGAGTATTGCGGAGGAAGG + anchor), 100 nM annealed; ATP concentration: 500 uM.
Procedure, shortened: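 Between each of five buffer/ATP cycles, the flow-cell was stripped with NaOH and re-annealed. Each cycle imaged Cy3-labelled switching-strand clusters, annealed to 100 nM quencher-labelled ATP aptamer on a modified Illumina MiSeq flow-cell, first in selection buffer and then after 15 min with 500 uM ATP at 22 °C. The fluorescence ratio is summed target-cycle over summed buffer-cycle Cy3 intensity per cluster, averaged per switch-domain sequence, with clusters outside 100-1000 RFU excluded.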
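Further: ATP exposure 15 min at 22 °C before imaging.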

Sequence	switch fluorescence ratio
TACGGGGATG	0.9963 ± 0.0056
CCTGTAGGCC	0.998 ± 0.027
TCGGGTTGGT	1.02 ± 0.061
GATTGTAATC	0.99 ± 0.0063
AATAAGGATA	1.01 ± 0.026
TTTGTAACAT	0.966 ± 0.047
CGCTTGAGA	1.04 ± 0.026
TGGCTGGAAG	0.988 ± 0.027
TTGTATGATT	1.013 ± 0.0075
TCTGGTTGCG	1 ± 0.037
GTTTGGGGTT	0.979 ± 0.031
CGACGAATAG	1.29 ± 0.063
ATACGCAGCG	0.998 ± 0.01
AAAGTGTACG	0.999 ± 0.03
GGGGTGCTTG	0.988 ± 0.026
AGCGGGTCCG	0.987 ± 0.017
ATCGGGAGGT	1.04 ± 0.061
GCACGGGGAT	1.02 ± 0.033
GCCATGGCGT	1.02 ± 0.031
TGGGATGTG	0.9906 ± 0.0049
ACACGGGTTA	1 ± 0.047
GGTTCACGGC	1.03 ± 0.015
AACTTTTAGT	0.99353 ± 0.00074
TACGAAGGGT	0.987 ± 0.009
AAATTCGACG	1.05 ± 0.046
GTTCGCATTG	1.08 ± 0.024

Sequence	switch fluorescence ratio
AGGGTGGAAG	0.993 ± 0.038
TGTCTGCAGC	1.022 ± 0.0085
TGATGTTACC	1.06 ± 0.02
CTTGGATGGG	0.9858 ± 0.0089
CGATTATTAT	0.975 ± 0.031
CCTAGGTTTC	0.981 ± 0.035
CAGTTAGCAT	1.101 ± 0.0097
ATGCCTAGTG	0.994 ± 0.013
GCGTTAATAA	1.06 ± 0.038
CGAGTTTG	0.98 ± 0.056
ACTCGCGGGA	0.995 ± 0.028
TTTCTTGGGA	1 ± 0.059
TCTTGAAATT	1.021 ± 0.0031
GACGGGGCTA	1.01 ± 0.023
TCGTTGTTAT	1 ± 0.023
CGGGGAGGTG	1.1 ± 0.087
GCTGGGAGGC	0.947 ± 0.071
CCAGGGAGGT	1 ± 0.034
TAGGTTGGTC	1.02 ± 0.064
TAATGGTCCG	1.03 ± 0.03
AGGGAGAAAA	0.974 ± 0.039
TTCAGGTTAG	1.01 ± 0.027
GGTTGATGAT	0.975 ± 0.033
AGGTTGTACT	0.968 ± 0.016
TGAATGATAG	0.983 ± 0.026
TTGTCGGTTT	0.983 ± 0.014

Sequence	switch fluorescence ratio
CGATTAAGAT	1.02 ± 0.021
GTCTTGGGGG	1 ± 0.023
CCGAAGTCCT	1.25 ± 0.033
ATGGTGCCCC	1.09 ± 0.049
GTTCGCGGTG	0.998 ± 0.017
AAAATGCGTT	1.02 ± 0.029
TTTTACGGTG	0.978 ± 0.03
ATCATGTGCA	0.9627 ± 0.0073
TTGAGGCGGG	0.993 ± 0.045
TACAAACGGT	1.17 ± 0.25
CCACACGAGA	1.18 ± 0.066
TATTTTGAAA	0.992 ± 0.027
CCCAATTATT	1.016 ± 0.0048
TGAGTGCCGG	1.18 ± 0.25
CTATGCGGGA	1.01 ± 0.04
CGTGAGCTAA	1.41 ± 0.19
GATATTTTGG	0.982 ± 0.025
ACAAGCGTTT	1.01 ± 0.036
GACGAAAAAG	0.982 ± 0.017
AAGGCGGGGC	0.981 ± 0.051
TCGTACATGA	1.013 ± 0.00015
TCGGCGTATC	0.979 ± 0.01
CGCGGGGTCC	1.05 ± 0.048
CCTACGGGCC	2.16 ± 0.12
GCAATCAGAA	1.04 ± 0.035
AGGGAACGAT	0.9693 ± 0.0022

Sequence	switch fluorescence ratio
TATGCGATTG	1.04 ± 0.019
TTAGGGGTCG	1 ± 0.041
GTTGGCTTTG	0.997 ± 0.048
TTACTAATTT	1.05 ± 0.036
TCATCTAGTG	1 ± 0.049
CTAAGTTTGA	1.03 ± 0.037
TAGTGGATGG	1 ± 0.029
TAATGGGTCC	0.99 ± 0.019
CCCCCGGGGG	1.91 ± 0.15
GGATGCGCCT	1.06 ± 0.15
AAATGGGACC	1.012 ± 0.0042
TGGATTCTCT	0.997 ± 0.017
CAACCTGCAG	1.06 ± 0.012
GGGTTTATGA	0.98 ± 0.04
CAGGAAATGG	0.999 ± 0.017
TGCCGGGTGG	1 ± 0.063
AACAGTTTGT	1 ± 0.017
GATTTCATTT	1.01 ± 0.04
CAGGATTGGG	0.973 ± 0.043
TATGCAGACT	0.956 ± 0.092
AATGTCAGCG	0.999 ± 0.037
GGGGTATGAG	0.972 ± 0.029
ATTGGACCAT	0.976 ± 0.036
TGGGTTTAGG	1.02 ± 0.025
GGGGGTGTCT	0.99 ± 0.034
ATAAAGATAG	1.0006 ± 7.5e-05

Sequence	switch fluorescence ratio
CCTTTTGGGG	1.03 ± 0.061
AGGTAGCGGC	0.9911 ± 0.0095
GAATAATGAT	0.989 ± 0.028
CTGTGAGTTA	0.97 ± 0.038
TTAATGAATT	0.994 ± 0.014
CGGAAAGTGT	0.996 ± 0.024
ACCGGAGCGG	1.61 ± 0.042
ACTTGATCCC	1.02 ± 0.043
GTCACTAGTG	1.028 ± 0.0026
GATGACGAAT	1.023 ± 0.0047
AGTGGGTATA	1.01 ± 0.02
TTTAGATATA	1.031 ± 0.0011
GGAATTATAA	0.99 ± 0.027
TTTTATTATG	1 ± 0.022
AGAGGTTTTG	1.01 ± 0.042
AGGTGGGGAC	1.01 ± 0.014
CTTGGGGCTA	1.03 ± 0.088
CCATGATGGT	1.014 ± 0.0084
TTAGGAGGTT	0.965 ± 0.028
ACATAGAACG	1.06 ± 0.038
CATAGGTTTT	1.03 ± 0.066
TATGTATGGA	0.989 ± 0.015
GCGGGCGTTC	1.0164 ± 0.0005
CACTGGGGCA	1.1 ± 0.15
CGGTTATAGG	0.967 ± 0.012
GGATTTTGGC	0.99 ± 0.019

Sequence	switch fluorescence ratio
GGTTTCAGAT	0.975 ± 0.016
AGGGCCGGGC	0.962 ± 0.044
ATTAGGTTCT	0.97 ± 0.051
TATGTAGCCG	1.03 ± 0.098
GACGAGGGGC	1.18 ± 0.031
TAGGGTATG	0.983 ± 0.053
AGATTGATGC	1.03 ± 0.03
ACTTGGATGG	0.995 ± 0.028
GTGAGGGGTA	0.975 ± 0.033
GGGTTTAGCG	1.014 ± 0.0022
AAGATTTTTC	0.992 ± 0.013
AATAATAGCC	1.01 ± 0.042
CTTGGAGGA	1.024 ± 0.0093
GTTGACAGG	1.025 ± 0.0066
GAGTAAGAGG	0.989 ± 0.059
TAGGAAGAGG	0.986 ± 0.0068
ATGACTAAGA	1.006 ± 0.0034
GCCACATTCA	0.991 ± 0.017
TTTTCGAAGC	2.08 ± 1.5
ATTGTGGGTT	1 ± 0.021
TAAGTGGGTG	1.01 ± 0.027
TGATGGTTTA	0.996 ± 0.03
TTAAGGTTAT	1.02 ± 0.032
